According to the Human Domainome abundance scans (Beltran et al. 2025):
± gives the uncertainty stated by the source.

B1: E3 ubiquitin-protein ligase Midline-1, residues 172 to 214; numbered along this chain, O15344 (parent)
chain: GLMCLEHEDEKVNMYCVTDDQLICALCKLVGRHRDHQVAALSE

Variants of: B1
Assay: abundance fitness (aPCA) (normalised: wild type 0, dead -1); higher = more abundant; growth selection in yeast, the domain comes from the species named
Conditions: Homo sapiens

In order of rising abundance fitness:
1. GLMCLEHEDEKVNFYCVTDDQLICALCKLVGRHRDHQVAALSE [M14F]  -0.451 ± 0.49
2. GLMCLEHEDEKVNPYCVTDDQLICALCKLVGRHRDHQVAALSE [M14P]  -0.405 ± 0.075
3. GLMCLEHEDEKVNVYCVTDDQLICALCKLVGRHRDHQVAALSE [M14V]  -0.386 ± 0.064
4. GLMCLEHWDEKVNMYCVTDDQLICALCKLVGRHRDHQVAALSE [E8W]  -0.348 ± 0.076
5. GLMCLEHEDEKVNMTCVTDDQLICALCKLVGRHRDHQVAALSE [Y15T]  -0.288 ± 0.086
6. GLMCLEHEDEWVNMYCVTDDQLICALCKLVGRHRDHQVAALSE [K11W]  -0.288 ± 0.067
7. GLMCLEHEDEPVNMYCVTDDQLICALCKLVGRHRDHQVAALSE [K11P]  -0.259 ± 0.18
8. GLMCLEHEDEVVNMYCVTDDQLICALCKLVGRHRDHQVAALSE [K11V]  -0.259 ± 0.059
9. GLMCLEHEDEDVNMYCVTDDQLICALCKLVGRHRDHQVAALSE [K11D]  -0.258 ± 0.14
10. GLMCLEHEDEKWNMYCVTDDQLICALCKLVGRHRDHQVAALSE [V12W]  -0.251 ± 0.095
11. GLMCLEHYDEKVNMYCVTDDQLICALCKLVGRHRDHQVAALSE [E8Y]  -0.243 ± 0.1
12. GLMCLEHEDEKCNMYCVTDDQLICALCKLVGRHRDHQVAALSE [V12C]  -0.231 ± 0.37
13. GLMCLEHEDEKANMYCVTDDQLICALCKLVGRHRDHQVAALSE [V12A]  -0.208 ± 0.09
14. GLMCLEHEDEGVNMYCVTDDQLICALCKLVGRHRDHQVAALSE [K11G]  -0.186 ± 0.051
15. GLMCLEHEDEKVNMNCVTDDQLICALCKLVGRHRDHQVAALSE [Y15N]  -0.165 ± 0.13
16. GLMCLEHEDEKTNMYCVTDDQLICALCKLVGRHRDHQVAALSE [V12T]  -0.149 ± 0.081
17. GLMCLEHEDEFVNMYCVTDDQLICALCKLVGRHRDHQVAALSE [K11F]  -0.132 ± 0.22
18. GLMCLEHEDEKENMYCVTDDQLICALCKLVGRHRDHQVAALSE [V12E]  -0.122 ± 0.075
19. GLMCLEHEDEKVNHYCVTDDQLICALCKLVGRHRDHQVAALSE [M14H]  -0.112 ± 0.3
20. GLMCLEHEDEAVNMYCVTDDQLICALCKLVGRHRDHQVAALSE [K11A]  -0.107 ± 0.054
21. GLMCLEHEDEKVNMMCVTDDQLICALCKLVGRHRDHQVAALSE [Y15M]  -0.094 ± 0.093
22. GLMCLEHEDESVNMYCVTDDQLICALCKLVGRHRDHQVAALSE [K11S]  -0.07 ± 0.063
23. GLMCLEHEDEKVNWYCVTDDQLICALCKLVGRHRDHQVAALSE [M14W]  -0.055 ± 0.056
24. GLMCLEHEDEKVNNYCVTDDQLICALCKLVGRHRDHQVAALSE [M14N]  -0.028 ± 0.18
25. GLMCLEHEDEKVNMSCVTDDQLICALCKLVGRHRDHQVAALSE [Y15S]  -0.023 ± 0.061
26. GLMCLEHEDEKVNLYCVTDDQLICALCKLVGRHRDHQVAALSE [M14L]  -0.022 ± 0.055
27. GLMCLEHEDEKYNMYCVTDDQLICALCKLVGRHRDHQVAALSE [V12Y]  -0.02 ± 0.16
28. GLMCLEHEDEKVNMGCVTDDQLICALCKLVGRHRDHQVAALSE [Y15G]  -0.015 ± 0.046
29. GLMCLEHEDEKVNMVCVTDDQLICALCKLVGRHRDHQVAALSE [Y15V]  -0.014 ± 0.059
30. GLMCLEHEDERVNMYCVTDDQLICALCKLVGRHRDHQVAALSE [K11R]  -0.012 ± 0.052
31. GLMCLEHEDEKVNMECVTDDQLICALCKLVGRHRDHQVAALSE [Y15E]  0.001 ± 0.058
32. GLMCLEHEDEKVNMLCVTDDQLICALCKLVGRHRDHQVAALSE [Y15L]  0.014 ± 0.063
33. GLMCLEHEDEKGNMYCVTDDQLICALCKLVGRHRDHQVAALSE [V12G]  0.026 ± 0.048
34. GLMCLEHEDENVNMYCVTDDQLICALCKLVGRHRDHQVAALSE [K11N]  0.027 ± 0.14
35. GLMCLEHEDEKVNRYCVTDDQLICALCKLVGRHRDHQVAALSE [M14R]  0.033 ± 0.055
36. GLMCLEHEDEEVNMYCVTDDQLICALCKLVGRHRDHQVAALSE [K11E]  0.033 ± 0.07
37. GLMCLEHEDEKVNAYCVTDDQLICALCKLVGRHRDHQVAALSE [M14A]  0.043 ± 0.048
38. GLMCLEHEDEKVNMACVTDDQLICALCKLVGRHRDHQVAALSE [Y15A]  0.045 ± 0.051
39. GLMCLEHEDEKVNGYCVTDDQLICALCKLVGRHRDHQVAALSE [M14G]  0.059 ± 0.045
40. GLMCLEHEDEKVNMCCVTDDQLICALCKLVGRHRDHQVAALSE [Y15C]  0.059 ± 0.072
41. GLMCLEHVDEKVNMYCVTDDQLICALCKLVGRHRDHQVAALSE [E8V]  0.072 ± 0.053
42. GLMCLEHEDEKVNDYCVTDDQLICALCKLVGRHRDHQVAALSE [M14D]  0.09 ± 0.12
43. GLMCLEHEDEMVNMYCVTDDQLICALCKLVGRHRDHQVAALSE [K11M]  0.096 ± 0.096
44. GLMCLEHEDEKVNKYCVTDDQLICALCKLVGRHRDHQVAALSE [M14K]  0.121 ± 0.21
45. GLMCLEHEDEKVNCYCVTDDQLICALCKLVGRHRDHQVAALSE [M14C]  0.137 ± 0.11
46. GLMCLEHEDECVNMYCVTDDQLICALCKLVGRHRDHQVAALSE [K11C]  0.148 ± 0.081
47. GLMCLEHEDEKVNMHCVTDDQLICALCKLVGRHRDHQVAALSE [Y15H]  0.151 ± 0.14
48. GLMCLEHEDEQVNMYCVTDDQLICALCKLVGRHRDHQVAALSE [K11Q]  0.158 ± 0.079
49. GLMCLEHEDEKVNEYCVTDDQLICALCKLVGRHRDHQVAALSE [M14E]  0.176 ± 0.055
50. GLMCLEHEDEHVNMYCVTDDQLICALCKLVGRHRDHQVAALSE [K11H]  0.19 ± 0.41
51. GLMCLEHEDEKVNQYCVTDDQLICALCKLVGRHRDHQVAALSE [M14Q]  0.242 ± 0.066
52. GLMCLEHEDEKVNMRCVTDDQLICALCKLVGRHRDHQVAALSE [Y15R]  0.258 ± 0.047
53. GLMCLEHEDEKVNSYCVTDDQLICALCKLVGRHRDHQVAALSE [M14S]  0.267 ± 0.065
54. GLMCLEHEDEKVNMKCVTDDQLICALCKLVGRHRDHQVAALSE [Y15K]  0.28 ± 0.078
55. GLMCLEHEDEIVNMYCVTDDQLICALCKLVGRHRDHQVAALSE [K11I]  0.284 ± 0.21
56. GLMCLEHEDEKVNTYCVTDDQLICALCKLVGRHRDHQVAALSE [M14T]  0.301 ± 0.084
57. GLMCLEHEDEKVNMQCVTDDQLICALCKLVGRHRDHQVAALSE [Y15Q]  0.315 ± 0.075
58. GLMCLEHSDEKVNMYCVTDDQLICALCKLVGRHRDHQVAALSE [E8S]  0.375 ± 0.058
59. GLMCLEHTDEKVNMYCVTDDQLICALCKLVGRHRDHQVAALSE [E8T]  0.398 ± 0.12
